Test results reported in patent US20200017598A1.

Biological target: mouse C5aR (mouse) (UniProt P30993)
Assay: cell-based or functional assay

Sequence of UniProt P30993 (P30993 other isoform, or with tags, fused parts or gaps): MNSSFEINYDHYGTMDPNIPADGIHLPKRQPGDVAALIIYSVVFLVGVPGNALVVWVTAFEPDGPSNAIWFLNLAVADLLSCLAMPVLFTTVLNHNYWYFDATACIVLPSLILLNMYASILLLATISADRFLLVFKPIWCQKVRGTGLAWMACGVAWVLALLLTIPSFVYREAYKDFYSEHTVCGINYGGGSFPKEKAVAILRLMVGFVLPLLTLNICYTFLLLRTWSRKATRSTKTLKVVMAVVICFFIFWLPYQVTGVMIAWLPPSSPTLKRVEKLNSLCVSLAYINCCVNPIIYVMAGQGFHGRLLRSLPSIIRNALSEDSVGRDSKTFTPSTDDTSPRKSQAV

inhibition of C5a-induced CD11b up-regulation on neutrophils (live Ly6G+ cells) in mouse whole blood stimulated with recombinant mouse C5a, flow cytometry: 0.6 µg/mL
Substance: Anti-mouse C5aR mAb m20/70 (20/70 variable regions on mouse kappa and mouse IgG2a.1 constant regions) (from UniProt P01863 1-330) (antibody)
